Measurements: patent US20210246166A1 (Bayer, published 2021)
Numbered stars: 1 amine (or outer) side, 2 acyl side, 3 side chain; on linkers, the order of the positions; unused ones are H or OH. Bridge positions count the residues as written; N and C are the ends. Square brackets hold non-standard residues; d marks the D form. Ends that are not written are not given here. * marks the point of attachment. Freidinger's Lactam = (2S)-2-[(3R)-3-amino-2-oxopyrrolidin-1-yl]-4-methylpentanoic acid (Freidinger's lactam), CC(C)C[C@@H](C(=O)[*:2])N1CC[C@@H](N[*:1])C1=O; X13 = (2S)‑2‑amino‑3‑(1-methylcyclopropyl)propanoic acid, CC1(C[C@H](N[*:1])C(=O)[*:2])CC1; X15 = (3S)‑2‑azaspiro(4.4)nonane‑3‑carboxylic acid, O=C([C@@H]1CC2(CCCC2)CN1[*:1])[*:2]; X11 = (S)‑Piperidine‑3‑carboxylic acid, O=C([C@H]1CCCN([*:1])C1)[*:2]; X14 = (2,4-dioxoimidazolidin-1-yl)acetic acid, O=C1CN(CC(=O)*)C(=O)N1; (R)‑Pyrrolidine‑3‑acetic acid = O=C(C[C@H]1CCN([*:1])C1)[*:2]; Ida = iminodiacetic acid, O=C(CN(CC(=O)[*:3])[*:1])[*:2]; Pro(3S,4R-methano) = O=C(O)[C@H]1NC[C@@H]2C[C@@H]21; Pro(cis-4-CF3) = O=C(O)[C@@H]1C[C@H](C(F)(F)F)CN1; Pro(4-spirocPr) = O=C(O)[C@@H]1CC2(CC2)CN1; Nip(3R) = O=C([C@@H]1CCCN([*:1])C1)[*:2]; Oic = O=C(O)[C@@H]1C[C@@H]2CCCC[C@@H]2N1; βPro(3R) = O=C([C@@H]1CCN([*:1])C1)[*:2]; tBuAla = CC(C)(C)C[C@H](N)C(=O)O; Pen = CC(C)(S)[C@H](N)C(=O)O; Sar = CNCC(=O)O

T1: Recombinant human MASP1 enzyme (fragment corresponding to amino acids 297-699, C-terminal His Tag) (human, UniProt P48740 297-699)
T1 sequence: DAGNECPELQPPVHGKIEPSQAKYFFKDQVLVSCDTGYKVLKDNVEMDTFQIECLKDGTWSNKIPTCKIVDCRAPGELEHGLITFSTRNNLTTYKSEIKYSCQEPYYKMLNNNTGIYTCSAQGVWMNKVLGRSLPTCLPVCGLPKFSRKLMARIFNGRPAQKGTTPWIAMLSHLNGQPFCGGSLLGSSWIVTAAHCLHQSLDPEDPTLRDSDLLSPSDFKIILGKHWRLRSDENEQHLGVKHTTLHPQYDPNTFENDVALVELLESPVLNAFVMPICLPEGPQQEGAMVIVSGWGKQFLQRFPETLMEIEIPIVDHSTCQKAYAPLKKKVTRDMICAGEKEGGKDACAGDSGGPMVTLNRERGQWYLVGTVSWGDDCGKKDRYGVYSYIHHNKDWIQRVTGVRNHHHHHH

B1: aIC+SRS-((tBu)A)-P-((6S)-5-Azaspiro[2.4]heptane-6-carboxylic acid)-I-(Pen)+IPe-OH (peptide)
peptide: [dA]ICSRS[tBuAla]P[Pro(4-spirocPr)]I[Pen]IP[dE]-OH
modifications: disulfide 3-11; N-terminus assumed
SMILES: CC[C@H](C)[C@H](NC(=O)[C@@H](C)N)C(=O)N[C@H]1CSSC(C)(C)[C@@H](C(=O)N[C@H](C(=O)N2CCC[C@H]2C(=O)N[C@H](CCC(=O)O)C(=O)O)[C@@H](C)CC)NC(=O)[C@H]([C@@H](C)CC)NC(=O)[C@@H]2CC3(CC3)CN2C(=O)[C@@H]2CCCN2C(=O)[C@H](CC(C)(C)C)NC(=O)[C@H](CO)NC(=O)[C@H](CCCNC(=N)N)NC(=O)[C@H](CO)NC1=O
B2: AIC+SRS-((tBu)A)-P-((4-CF3)P)-IC+IPD-OH (peptide)
peptide: AICSRS[tBuAla]P[Pro(cis-4-CF3)]ICIPD-OH
modifications: disulfide 3-11; N-terminus assumed
SMILES: CC[C@H](C)[C@H](NC(=O)[C@H](C)N)C(=O)N[C@H]1CSSC[C@@H](C(=O)N[C@H](C(=O)N2CCC[C@H]2C(=O)N[C@@H](CC(=O)O)C(=O)O)[C@@H](C)CC)NC(=O)[C@H]([C@@H](C)CC)NC(=O)[C@@H]2C[C@H](C(F)(F)F)CN2C(=O)[C@@H]2CCCN2C(=O)[C@H](CC(C)(C)C)NC(=O)[C@H](CO)NC(=O)[C@H](CCCNC(=N)N)NC(=O)[C@H](CO)NC1=O
B3: ((N-Me)G)-IC+SRS-((2S)-2-amino-3-(1-methylcyclopropyl)propanoic acid)-P-(Oic)-I-(Pen)+IPD-OH (peptide)
peptide: [Sar]ICSRS[X13]P[Oic]I[Pen]IPD-OH
modifications: disulfide 3-11; N-terminus assumed
SMILES: CC[C@H](C)[C@H](NC(=O)CNC)C(=O)N[C@H]1CSSC(C)(C)[C@@H](C(=O)N[C@H](C(=O)N2CCC[C@H]2C(=O)N[C@@H](CC(=O)O)C(=O)O)[C@@H](C)CC)NC(=O)[C@H]([C@@H](C)CC)NC(=O)[C@@H]2C[C@@H]3CCCC[C@@H]3N2C(=O)[C@@H]2CCCN2C(=O)[C@H](CC2(C)CC2)NC(=O)[C@H](CO)NC(=O)[C@H](CCCNC(=N)N)NC(=O)[C@H](CO)NC1=O
B4: ((N-Me)G)-IC+SRS-((tBu)A)-P-((1S,2S,5R)-3-azabicyclo[3.1.0]hexane-2-carboxylic acid)-I-(Pen)+IPD-OH (peptide)
peptide: [Sar]ICSRS[tBuAla]P[Pro(3S,4R-methano)]I[Pen]IPD-OH
modifications: disulfide 3-11; N-terminus assumed
SMILES: CC[C@H](C)[C@H](NC(=O)CNC)C(=O)N[C@H]1CSSC(C)(C)[C@@H](C(=O)N[C@H](C(=O)N2CCC[C@H]2C(=O)N[C@@H](CC(=O)O)C(=O)O)[C@@H](C)CC)NC(=O)[C@H]([C@@H](C)CC)NC(=O)[C@@H]2[C@H]3C[C@H]3CN2C(=O)[C@@H]2CCCN2C(=O)[C@H](CC(C)(C)C)NC(=O)[C@H](CO)NC(=O)[C@H](CCCNC(=N)N)NC(=O)[C@H](CO)NC1=O
B5: ((N-Me)G)-IC+SRSLP-(Oic)-I-(Pen)+IP-(Freidinger's Lactam)-OH (peptide)
peptide: [Sar]ICSRSLP[Oic]I[Pen]IP[Freidinger's Lactam]-OH
modifications: disulfide 3-11; N-terminus assumed
SMILES: CC[C@H](C)[C@H](NC(=O)CNC)C(=O)N[C@H]1CSSC(C)(C)[C@@H](C(=O)N[C@H](C(=O)N2CCC[C@H]2C(=O)N[C@@H]2CCN([C@@H](CC(C)C)C(=O)O)C2=O)[C@@H](C)CC)NC(=O)[C@H]([C@@H](C)CC)NC(=O)[C@@H]2C[C@@H]3CCCC[C@@H]3N2C(=O)[C@@H]2CCCN2C(=O)[C@H](CC(C)C)NC(=O)[C@H](CO)NC(=O)[C@H](CCCNC(=N)N)NC(=O)[C@H](CO)NC1=O
B6: pIC+SRSLP-(Oic)-I-(Pen)+IP-(Ida)-OH (HCl salt) (peptide)
peptide: [dP]ICSRSLP[Oic]I[Pen]IP[Ida]-OH
modifications: disulfide 3-11; also: HCl salt
B7: ((N-Me)G)-IC+SRSLP-(Oic)-I-(Pen)+IP-((R)-Pyrrolidine-3-acetic acid)-OH (peptide)
peptide: [Sar]ICSRSLP[Oic]I[Pen]IP[(R)‑Pyrrolidine‑3‑acetic acid]-OH
modifications: disulfide 3-11; N-terminus assumed
SMILES: CC[C@H](C)[C@H](NC(=O)CNC)C(=O)N[C@H]1CSSC(C)(C)[C@@H](C(=O)N[C@H](C(=O)N2CCC[C@H]2C(=O)N2CC[C@H](CC(=O)O)C2)[C@@H](C)CC)NC(=O)[C@H]([C@@H](C)CC)NC(=O)[C@@H]2C[C@@H]3CCCC[C@@H]3N2C(=O)[C@@H]2CCCN2C(=O)[C@H](CC(C)C)NC(=O)[C@H](CO)NC(=O)[C@H](CCCNC(=N)N)NC(=O)[C@H](CO)NC1=O
B8: ((N-Me)G)-IC+SRS-((tBu)A)-P-((3S)-2-azaspiro[4.4]nonane-3-carboxylic acid)-I-(Pen)+IPD-OH (peptide)
peptide: [Sar]ICSRS[tBuAla]P[X15]I[Pen]IPD-OH
modifications: disulfide 3-11; N-terminus assumed
SMILES: CC[C@H](C)[C@H](NC(=O)CNC)C(=O)N[C@H]1CSSC(C)(C)[C@@H](C(=O)N[C@H](C(=O)N2CCC[C@H]2C(=O)N[C@@H](CC(=O)O)C(=O)O)[C@@H](C)CC)NC(=O)[C@H]([C@@H](C)CC)NC(=O)[C@@H]2CC3(CCCC3)CN2C(=O)[C@@H]2CCCN2C(=O)[C@H](CC(C)(C)C)NC(=O)[C@H](CO)NC(=O)[C@H](CCCNC(=N)N)NC(=O)[C@H](CO)NC1=O
B9: ((N-Me)G)-IC+SRSLP-(Oic)-I-(Pen)+IP-((R)-Pyrrolidine-3-carboxylic acid)-OH (peptide)
peptide: [Sar]ICSRSLP[Oic]I[Pen]IP[βPro(3R)]-OH
modifications: disulfide 3-11; N-terminus assumed
SMILES: CC[C@H](C)[C@H](NC(=O)CNC)C(=O)N[C@H]1CSSC(C)(C)[C@@H](C(=O)N[C@H](C(=O)N2CCC[C@H]2C(=O)N2CC[C@@H](C(=O)O)C2)[C@@H](C)CC)NC(=O)[C@H]([C@@H](C)CC)NC(=O)[C@@H]2C[C@@H]3CCCC[C@@H]3N2C(=O)[C@@H]2CCCN2C(=O)[C@H](CC(C)C)NC(=O)[C@H](CO)NC(=O)[C@H](CCCNC(=N)N)NC(=O)[C@H](CO)NC1=O
B10: ((2,4-dioxoimidazolidin-1-yl)acetic acid)-IC+SRSLP-(Oic)-I-(Pen)+IPD-OH (peptide)
peptide: X14-ICSRSLP[Oic]I[Pen]IPD-OH
modifications: disulfide 2-10
SMILES: CC[C@H](C)[C@H](NC(=O)CN1CC(=O)NC1=O)C(=O)N[C@H]1CSSC(C)(C)[C@@H](C(=O)N[C@H](C(=O)N2CCC[C@H]2C(=O)N[C@@H](CC(=O)O)C(=O)O)[C@@H](C)CC)NC(=O)[C@H]([C@@H](C)CC)NC(=O)[C@@H]2C[C@@H]3CCCC[C@@H]3N2C(=O)[C@@H]2CCCN2C(=O)[C@H](CC(C)C)NC(=O)[C@H](CO)NC(=O)[C@H](CCCNC(=N)N)NC(=O)[C@H](CO)NC1=O
B11: AIC+SRSLP-(Oic)-I-(Pen)+IP-(*Dap)-OH (peptide)
peptide: AICSRSLP[Oic]I[Pen]IP[βDap]-OH
modifications: disulfide 3-11; also: C-terminal Dap bonded through its side-chain amino group
B12: ((R)-Piperidine-3-carboxylic acid)-IC+SRSLP-(Oic)-I-(Pen)+I-OH (peptide)
peptide: [Nip(3R)]ICSRSLP[Oic]I[Pen]I-OH
modifications: disulfide 3-11; N-terminus assumed
SMILES: CC[C@H](C)[C@H](NC(=O)[C@H]1NC(=O)[C@H]([C@@H](C)CC)NC(=O)[C@@H]2C[C@@H]3CCCC[C@@H]3N2C(=O)[C@@H]2CCCN2C(=O)[C@H](CC(C)C)NC(=O)[C@H](CO)NC(=O)[C@H](CCCNC(=N)N)NC(=O)[C@H](CO)NC(=O)[C@@H](NC(=O)[C@@H](NC(=O)[C@@H]2CCCNC2)[C@@H](C)CC)CSSC1(C)C)C(=O)O
B13: ((S)-Piperidine-3-carboxylic acid)-IC+SRSLP-(Oic)-I-(Pen)+I-OH (peptide)
peptide: [X11]ICSRSLP[Oic]I[Pen]I-OH
modifications: disulfide 3-11; N-terminus assumed
SMILES: CC[C@H](C)[C@H](NC(=O)[C@H]1NC(=O)[C@H]([C@@H](C)CC)NC(=O)[C@@H]2C[C@@H]3CCCC[C@@H]3N2C(=O)[C@@H]2CCCN2C(=O)[C@H](CC(C)C)NC(=O)[C@H](CO)NC(=O)[C@H](CCCNC(=N)N)NC(=O)[C@H](CO)NC(=O)[C@@H](NC(=O)[C@@H](NC(=O)[C@H]2CCCNC2)[C@@H](C)CC)CSSC1(C)C)C(=O)O
B14: ((N-Me)G)-IC+SRSLP-(Oic)-I-(Pen)+IPDK-OH (peptide)
peptide: [Sar]ICSRSLP[Oic]I[Pen]IPDK-OH
modifications: disulfide 3-11; N-terminus assumed
SMILES: CC[C@H](C)[C@H](NC(=O)CNC)C(=O)N[C@H]1CSSC(C)(C)[C@@H](C(=O)N[C@H](C(=O)N2CCC[C@H]2C(=O)N[C@@H](CC(=O)O)C(=O)N[C@@H](CCCCN)C(=O)O)[C@@H](C)CC)NC(=O)[C@H]([C@@H](C)CC)NC(=O)[C@@H]2C[C@@H]3CCCC[C@@H]3N2C(=O)[C@@H]2CCCN2C(=O)[C@H](CC(C)C)NC(=O)[C@H](CO)NC(=O)[C@H](CCCNC(=N)N)NC(=O)[C@H](CO)NC1=O
B15: ((N-Me)G)-IC+SRSLP-(Oic)-I-(Pen)+IPGD-OH (peptide)
peptide: [Sar]ICSRSLP[Oic]I[Pen]IPGD-OH
modifications: disulfide 3-11; N-terminus assumed
SMILES: CC[C@H](C)[C@H](NC(=O)CNC)C(=O)N[C@H]1CSSC(C)(C)[C@@H](C(=O)N[C@H](C(=O)N2CCC[C@H]2C(=O)NCC(=O)N[C@@H](CC(=O)O)C(=O)O)[C@@H](C)CC)NC(=O)[C@H]([C@@H](C)CC)NC(=O)[C@@H]2C[C@@H]3CCCC[C@@H]3N2C(=O)[C@@H]2CCCN2C(=O)[C@H](CC(C)C)NC(=O)[C@H](CO)NC(=O)[C@H](CCCNC(=N)N)NC(=O)[C@H](CO)NC1=O

target: T1, Recombinant human MASP1 enzyme …; assay: cell-based or functional assay

In order of rising “human MASP1 IC50” value:
1. B15  1 nM
2. B14  3.8 nM
3. B12  4.3 nM
4. B1  4.4 nM
5. B11  5.1 nM
6. B4  6.6 nM
7. B7  6.78 nM
8. B6  7.5 nM
9. B2  7.8 nM
10. B13  8.2 nM
11. B10  17 nM
12. B8  17.1 nM
13. B3  20 nM
14. B5  23 nM
15. B9  28 nM

target: Recombinant human MASP2 enzyme (fragment corresponding to amino acids 297-686, C-terminal His Tag) (human, UniProt O00187 297-686); assay: cell-based or functional assay
Sequence (O00187 other isoform, or with tags, fused parts or gaps limits assumed): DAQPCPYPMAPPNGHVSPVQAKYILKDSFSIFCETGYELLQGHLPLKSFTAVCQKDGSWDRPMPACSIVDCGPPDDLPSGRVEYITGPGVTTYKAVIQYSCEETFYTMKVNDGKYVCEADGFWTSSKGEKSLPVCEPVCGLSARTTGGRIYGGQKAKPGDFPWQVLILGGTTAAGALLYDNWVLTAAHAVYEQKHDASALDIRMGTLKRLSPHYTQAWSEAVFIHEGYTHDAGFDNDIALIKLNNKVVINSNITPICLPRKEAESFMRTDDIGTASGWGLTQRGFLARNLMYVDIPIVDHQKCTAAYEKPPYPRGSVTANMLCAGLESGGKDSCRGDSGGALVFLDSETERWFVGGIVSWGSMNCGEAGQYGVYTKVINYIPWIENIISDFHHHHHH

In order of rising “human MASP2 IC50” value:
1. B1  24 nM
2. B10  45 nM
3. B15  45 nM
4. B6  65 nM
5. B5  96 nM
6. B4  104 nM
7. B7  116 nM
8. B13  140 nM
9. B9  166 nM
10. B12  200 nM
11. B11  210 nM
12. B3  230 nM
13. B14  260 nM
14. B8  261 nM
15. B2  1000 nM
